Source: US20030199022
Numbering of substitutions follows the chain as printed.

Experiments:
Test in all cases: cell_activity
[1] = target: T1, ERα wild type (in cell) (Homo sapiens) (UniProt P03372); conditions: HepG2, OHT
T1 sequence: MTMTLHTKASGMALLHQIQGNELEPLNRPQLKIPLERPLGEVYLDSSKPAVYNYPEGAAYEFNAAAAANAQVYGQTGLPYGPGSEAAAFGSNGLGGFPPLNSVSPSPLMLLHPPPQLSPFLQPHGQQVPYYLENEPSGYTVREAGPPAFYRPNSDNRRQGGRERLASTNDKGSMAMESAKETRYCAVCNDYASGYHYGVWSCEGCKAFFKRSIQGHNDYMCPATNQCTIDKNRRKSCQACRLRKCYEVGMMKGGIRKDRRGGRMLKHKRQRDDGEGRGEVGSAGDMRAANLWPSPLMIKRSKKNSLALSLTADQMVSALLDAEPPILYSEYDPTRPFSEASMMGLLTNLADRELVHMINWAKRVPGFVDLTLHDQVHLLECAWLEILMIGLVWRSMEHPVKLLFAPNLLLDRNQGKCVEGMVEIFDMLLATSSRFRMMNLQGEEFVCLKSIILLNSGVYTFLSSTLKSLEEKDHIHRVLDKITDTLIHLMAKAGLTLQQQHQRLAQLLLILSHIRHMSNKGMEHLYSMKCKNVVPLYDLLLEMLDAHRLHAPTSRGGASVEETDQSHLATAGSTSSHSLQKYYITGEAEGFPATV

[2] = target: T2, ER3M (in cell) E203W,Q214A,H216G (Homo sapiens) (UniProt P03372); conditions: HepG2, 10 nM OHT
T2 sequence: T1 sequence with E203W, Q214A, H216G

[3] = target: T3, ER4.3 (in cell) E203W,Q214V,G215R,H216P,N217T (Homo sapiens) (UniProt P03372); conditions: HepG2, 10 nM OHT
T3 sequence: T1 sequence with E203W, Q214V, G215R, H216P, N217T

Sequence “GCTAGCGGGCCACTGTGGCCCTGACAACTAGTAAGTCGGGCCACTGTGGCCCGACGTACTATCTCGAGGGGCCACTGTGGCCCTAGAGCTGCAGGTATCGGGCCACTGTGGCCCTAGTTCATTAAAGCTTGGGCCACTGTGGCCCATCAAGATATCGAGATGGGCCACTGTGGCCCATCGACAGGAATTCACGGGCCACTGTGGCCCATCAAGATATCGAGATGGGCCACTGTGGCCCATCGACTCTAGA (double strand) [ATL8/PAL]” has an activity (fold induction) [1] of 52, an activity (fold induction) [2] of 117 and an activity (fold induction) [3] of 172.
